Like-named read-outs stand apart in the source and are kept apart here.

Here are results for 1 molecule from patent US20210002376A1.

One assay addresses HER3-His (UniProt P21860). Nature of the assay: ELISA, coated His-tagged HER3 ECD, anti-human Fc-HRP.
The target in assay [1] is HER3-Fc fusion protein (UniProt P21860). Nature of the assay: ELISA, coated HER3-Fc, anti-human Fab-HRP. (In general: ELISA stands for enzyme-linked immunosorbent assay.)
Assay [2] has the same target. Nature of the assay: ELISA, coated HER3-Fc, anti-human Fab-HRP. This is another data set of the same source.

B1: 3-43-IgG (antibody, from a related filing, V domains shown)
VH: QVQLQQSGPGLVKPSQTLSLTCAISGDSVSSNRAAWNWIRQSPSRGLEWLGRTYYRSKWYNDYAQSLKSRITINPDTPKNQFSLQLNSVTPEDTAVYYCARDGQLGLDALDIWGQGTMVTVSS
VL: QAGLTQPPAVSVAPGQTASITCGRDNIGSRSVHWYQQKPGQAPVLVVYDDSDRPAGIPERFSGSNYENTATLTISRVEAGDEADYYCQVWGITSDHVVFGGGTKLTVLC
As a reminder, the EC50 is the concentration needed to bring the measured effect to its halfway point. A higher EC50 goes with a need for much substance. For B1, the EC50 with HER3-His came out at 0.23 nM; with HER3-Fc fusion protein [1], 0.2 nM; in the assay with HER3-Fc fusion protein [2], 0.21 nM.
